Here are results for 1 molecule from US6706762, “Methods for the use of inhibitors of co-repressors for the treatment of neoplastic diseases” (The Salk Institute for Biological Studies).

In one data set the target is RARα/RXRα heterodimer (UniProt P10276;P19793 P10276:1-462,P19793:1-462). The experiment in a line: EMSA; with GST-SMRT-IDII; SMRT dissociated by ATRA; 100 mM KCl, 16.7 mM Tris pH 7.5, poly(dI:dC), room temperature. The note with it: label: 32P. The text has this: The protein-DNA complexes were then resolved on a 4.5% native polyacrylamide gel and visualized by autoradiography.
Sequence of RARα/RXRα heterodimer (P10276 whole entry, chain 1 of 2): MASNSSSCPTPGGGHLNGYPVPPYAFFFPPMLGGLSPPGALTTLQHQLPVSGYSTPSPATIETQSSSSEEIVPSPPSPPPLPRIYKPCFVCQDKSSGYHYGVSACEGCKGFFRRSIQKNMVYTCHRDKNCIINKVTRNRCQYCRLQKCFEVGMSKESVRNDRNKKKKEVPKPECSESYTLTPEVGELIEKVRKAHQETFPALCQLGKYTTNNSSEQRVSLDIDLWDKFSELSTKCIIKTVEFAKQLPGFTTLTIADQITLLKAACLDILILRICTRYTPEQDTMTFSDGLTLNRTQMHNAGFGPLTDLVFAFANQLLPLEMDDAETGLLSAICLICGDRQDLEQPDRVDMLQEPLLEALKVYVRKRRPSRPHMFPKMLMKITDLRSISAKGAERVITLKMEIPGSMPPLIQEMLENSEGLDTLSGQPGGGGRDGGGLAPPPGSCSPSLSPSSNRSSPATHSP
Sequence of RARα/RXRα heterodimer (P19793 whole entry, chain 2 of 2): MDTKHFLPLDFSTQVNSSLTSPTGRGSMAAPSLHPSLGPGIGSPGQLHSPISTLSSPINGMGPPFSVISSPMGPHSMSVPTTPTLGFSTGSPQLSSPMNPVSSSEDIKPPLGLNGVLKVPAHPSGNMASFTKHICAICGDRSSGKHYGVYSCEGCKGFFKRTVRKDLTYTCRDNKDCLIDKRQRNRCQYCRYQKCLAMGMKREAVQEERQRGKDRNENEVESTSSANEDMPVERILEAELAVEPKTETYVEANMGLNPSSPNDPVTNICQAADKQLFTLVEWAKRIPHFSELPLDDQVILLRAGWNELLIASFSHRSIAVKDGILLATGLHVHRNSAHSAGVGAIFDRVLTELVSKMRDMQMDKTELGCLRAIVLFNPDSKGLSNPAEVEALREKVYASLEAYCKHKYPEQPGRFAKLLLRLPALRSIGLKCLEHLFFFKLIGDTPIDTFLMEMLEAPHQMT
A general note: A gel shift assay detects complexes by their altered migration in electrophoresis.

Data set [1] deals with RARα 411/RXRα heterodimer (Homo sapiens, UniProt P10276;P19793 P10276:1-410,P19793:1-462, RARα stop codon introduced at amino acid 411). The experiment in a line: EMSA; with GST-SMRT-IDII; impaired dissociation of SMRT by ATRA. The note with it: label: 32P.
Sequence of RARα 411/RXRα heterodimer (P10276 1-410, change not shown, chain 1 of 2): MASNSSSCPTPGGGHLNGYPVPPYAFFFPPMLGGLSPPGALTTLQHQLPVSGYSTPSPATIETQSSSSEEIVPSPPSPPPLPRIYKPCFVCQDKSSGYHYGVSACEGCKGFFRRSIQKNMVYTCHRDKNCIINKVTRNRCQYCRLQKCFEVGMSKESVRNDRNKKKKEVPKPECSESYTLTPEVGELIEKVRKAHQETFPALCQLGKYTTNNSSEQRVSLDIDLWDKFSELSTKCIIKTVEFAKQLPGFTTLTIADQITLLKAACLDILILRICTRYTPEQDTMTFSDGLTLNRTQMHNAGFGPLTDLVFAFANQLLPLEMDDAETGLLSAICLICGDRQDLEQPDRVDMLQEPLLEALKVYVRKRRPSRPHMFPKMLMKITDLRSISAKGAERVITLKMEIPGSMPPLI
Sequence of RARα 411/RXRα heterodimer (P19793 whole entry, change not shown, chain 2 of 2): as the sequence (P19793 whole entry, chain 2 of 2) above

B1: DR5 retinoid response element (dsDNA)
DNA 1: TCGACTCAGGTCACCACGAGGTCAGAGTC
DNA 2: GACTCTGACCTCGTGGTGACCTGAGTCGA
Consider B1, for which the binding result (in the data set with RARα/RXRα heterodimer; in data set [1]) was “binds” each time.
